Tested on: Escherichia coli TOP10
Assay: shrunken log2 fold change of peptide-encoding DNA abundance (4.5 h post-induction vs induction); higher = less antimicrobial activity (less host growth inhibition)
Conditions: time post-induction: 4.5 h; library: site-saturation at positions 5, 18, 19, 20
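Note: peptides expressed intracellularly from a pBAD plasmid library in pooled LB shake-flask culture, induced with 0.3% L-arabinose, DNA abundance read by NGS, three biological replicates, DESeq2 with apeglm shrinkage.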

Row | Sequence | shrunken log2 fold change
1 | RRIRQRPPRLPRPRPRPMHQPRP | -0.195
2 | RRIRQRPPRLPRPRPRPMINPRP | -0.0423
3 | RRIRQRPPRLPRPRPRPMKVPRP | 0.0879
4 | RRIRQRPPRLPRPRPRPMNIPRP | -0.809
5 | RRIRQRPPRLPRPRPRPMNKPRP | -0.169
6 | RRIRQRPPRLPRPRPRPMNPPRP | -0.0843
7 | RRIRQRPPRLPRPRPRPMNVPRP | -0.0102
8 | RRIRQRPPRLPRPRPRPMPKPRP | 0.128
9 | RRIRQRPPRLPRPRPRPMQSPRP | 0.108
10 | RRIRQRPPRLPRPRPRPMRMPRP | 0.0593
11 | RRIRQRPPRLPRPRPRPMRYPRP | 0.0851
12 | RRIRQRPPRLPRPRPRPMWAPRP | -0.127
13 | RRIRQRPPRLPRPRPRPMWEPRP | 0.00271
14 | RRIRQRPPRLPRPRPRPMYCPRP | -0.526
15 | RRIRQRPPRLPRPRPRPNADPRP | 0.00101
16 | RRIRQRPPRLPRPRPRPNAPPRP | 0.105
17 | RRIRQRPPRLPRPRPRPNCFPRP | 0.0427
18 | RRIRQRPPRLPRPRPRPNCPPRP | 0.0556
19 | RRIRQRPPRLPRPRPRPNCYPRP | -0.284
20 | RRIRQRPPRLPRPRPRPNDWPRP | 0.142
21 | RRIRQRPPRLPRPRPRPNDYPRP | -0.179
22 | RRIRQRPPRLPRPRPRPNEMPRP | 0.105
23 | RRIRQRPPRLPRPRPRPNEQPRP | 0.0394
24 | RRIRQRPPRLPRPRPRPNERPRP | -0.0297
25 | RRIRQRPPRLPRPRPRPNESPRP | -0.0813

Row | Sequence | shrunken log2 fold change
26 | RRIRQRPPRLPRPRPRPNFIPRP | -0.402
27 | RRIRQRPPRLPRPRPRPNKAPRP | -0.041
28 | RRIRQRPPRLPRPRPRPNKCPRP | -0.145
29 | RRIRQRPPRLPRPRPRPNKDPRP | -0.665
30 | RRIRQRPPRLPRPRPRPNLEPRP | -0.136
31 | RRIRQRPPRLPRPRPRPNLHPRP | -0.255
32 | RRIRQRPPRLPRPRPRPNLVPRP | 0.0528
33 | RRIRQRPPRLPRPRPRPNMDPRP | -0.225
34 | RRIRQRPPRLPRPRPRPNMKPRP | -0.336
35 | RRIRQRPPRLPRPRPRPNNYPRP | -0.53
36 | RRIRQRPPRLPRPRPRPNPDPRP | -0.0331
37 | RRIRQRPPRLPRPRPRPNPPPRP | 0.0904
38 | RRIRQRPPRLPRPRPRPNRSPRP | -0.0178
39 | RRIRQRPPRLPRPRPRPNSCPRP | 0.0314
40 | RRIRQRPPRLPRPRPRPNTKPRP | -0.199
41 | RRIRQRPPRLPRPRPRPNVDPRP | -0.0229
42 | RRIRQRPPRLPRPRPRPNVTPRP | 0.0508
43 | RRIRQRPPRLPRPRPRPNYCPRP | -0.0656
44 | RRIRQRPPRLPRPRPRPNYWPRP | -0.251
45 | RRIRQRPPRLPRPRPRPPDDPRP | -0.308
46 | RRIRQRPPRLPRPRPRPPEMPRP | -0.162
47 | RRIRQRPPRLPRPRPRPPFDPRP | 0.283
48 | RRIRQRPPRLPRPRPRPPGCPRP | 0.342
49 | RRIRQRPPRLPRPRPRPPGHPRP | 0.249
50 | RRIRQRPPRLPRPRPRPPITPRP | -0.0813

Row | Sequence | shrunken log2 fold change
51 | RRIRQRPPRLPRPRPRPPKHPRP | -0.142
52 | RRIRQRPPRLPRPRPRPPNDPRP | 0.0155
53 | RRIRQRPPRLPRPRPRPPPMPRP | 0.558
54 | RRIRQRPPRLPRPRPRPPPYPRP | -0.0506
55 | RRIRQRPPRLPRPRPRPPQCPRP | 0.114
56 | RRIRQRPPRLPRPRPRPPRTPRP | 0.669
57 | RRIRQRPPRLPRPRPRPPSVPRP | 0.0958
58 | RRIRQRPPRLPRPRPRPPTAPRP | 0.504
59 | RRIRQRPPRLPRPRPRPPTYPRP | -0.0183
60 | RRIRQRPPRLPRPRPRPPVIPRP | -0.498
61 | RRIRQRPPRLPRPRPRPPVVPRP | 0.126
62 | RRIRQRPPRLPRPRPRPPWCPRP | 0.0207
63 | RRIRQRPPRLPRPRPRPQCKPRP | -0.102
64 | RRIRQRPPRLPRPRPRPQDCPRP | -0.186
65 | RRIRQRPPRLPRPRPRPQDDPRP | -0.0165
66 | RRIRQRPPRLPRPRPRPQECPRP | -0.00962
67 | RRIRQRPPRLPRPRPRPQENPRP | -0.0517
68 | RRIRQRPPRLPRPRPRPQHFPRP | 0.14
69 | RRIRQRPPRLPRPRPRPQHKPRP | -0.205
70 | RRIRQRPPRLPRPRPRPQHNPRP | -0.786
71 | RRIRQRPPRLPRPRPRPQLTPRP | -0.405
72 | RRIRQRPPRLPRPRPRPQNIPRP | -0.882
73 | RRIRQRPPRLPRPRPRPQNKPRP | -0.22
74 | RRIRQRPPRLPRPRPRPQNVPRP | -0.0161
75 | RRIRQRPPRLPRPRPRPQQLPRP | -0.0824

Row | Sequence | shrunken log2 fold change
76 | RRIRQRPPRLPRPRPRPQQPPRP | 0.00789
77 | RRIRQRPPRLPRPRPRPQSMPRP | -0.395
78 | RRIRQRPPRLPRPRPRPQSQPRP | -0.159
79 | RRIRQRPPRLPRPRPRPQTMPRP | 0.0333
80 | RRIRQRPPRLPRPRPRPQVMPRP | 0.095
81 | RRIRQRPPRLPRPRPRPQVWPRP | -0.0346
82 | RRIRQRPPRLPRPRPRPQWDPRP | 0.0263
83 | RRIRQRPPRLPRPRPRPQYFPRP | -0.00133
84 | RRIRQRPPRLPRPRPRPQYMPRP | -0.587
85 | RRIRQRPPRLPRPRPRPRAHPRP | 0.638
86 | RRIRQRPPRLPRPRPRPRARPRP | 0.579
87 | RRIRQRPPRLPRPRPRPRCQPRP | -0.0547
88 | RRIRQRPPRLPRPRPRPRDCPRP | 0.142
89 | RRIRQRPPRLPRPRPRPRDFPRP | 0.984
90 | RRIRQRPPRLPRPRPRPRDTPRP | 0.0606
91 | RRIRQRPPRLPRPRPRPREPPRP | 0.0406
92 | RRIRQRPPRLPRPRPRPREQPRP | -0.00783
93 | RRIRQRPPRLPRPRPRPRFFPRP | 0.0926
94 | RRIRQRPPRLPRPRPRPRFHPRP | -0.177
95 | RRIRQRPPRLPRPRPRPRHMPRP | -0.316
96 | RRIRQRPPRLPRPRPRPRHNPRP | -0.0654
97 | RRIRQRPPRLPRPRPRPRITPRP | 1.06
98 | RRIRQRPPRLPRPRPRPRIWPRP | 0.123
99 | RRIRQRPPRLPRPRPRPRKEPRP | -0.0194
100 | RRIRQRPPRLPRPRPRPRKLPRP | 0.0501

Row | Sequence | shrunken log2 fold change
101 | RRIRQRPPRLPRPRPRPRKQPRP | 0.505
102 | RRIRQRPPRLPRPRPRPRLAPRP | 0.594
103 | RRIRQRPPRLPRPRPRPRMFPRP | 0.0604
104 | RRIRQRPPRLPRPRPRPRMNPRP | -0.15
105 | RRIRQRPPRLPRPRPRPRNSPRP | -0.0108
106 | RRIRQRPPRLPRPRPRPRQPPRP | 0.622
107 | RRIRQRPPRLPRPRPRPRTQPRP | 0.0198
108 | RRIRQRPPRLPRPRPRPRTSPRP | 0.131
109 | RRIRQRPPRLPRPRPRPRVCPRP | 0.303
110 | RRIRQRPPRLPRPRPRPRVKPRP | 0.103
111 | RRIRQRPPRLPRPRPRPSARPRP | -0.00609
112 | RRIRQRPPRLPRPRPRPSCCPRP | -0.408
113 | RRIRQRPPRLPRPRPRPSDFPRP | -0.128
114 | RRIRQRPPRLPRPRPRPSECPRP | -0.0674
115 | RRIRQRPPRLPRPRPRPSEEPRP | -0.226
116 | RRIRQRPPRLPRPRPRPSGAPRP | 0.054
117 | RRIRQRPPRLPRPRPRPSGNPRP | -0.323
118 | RRIRQRPPRLPRPRPRPSGWPRP | -0.112
119 | RRIRQRPPRLPRPRPRPSIVPRP | -0.323
120 | RRIRQRPPRLPRPRPRPSLIPRP | -0.275
121 | RRIRQRPPRLPRPRPRPSNWPRP | -0.227
122 | RRIRQRPPRLPRPRPRPSPSPRP | -0.144
123 | RRIRQRPPRLPRPRPRPSQDPRP | -0.0378
124 | RRIRQRPPRLPRPRPRPSRGPRP | 0.269
125 | RRIRQRPPRLPRPRPRPSSCPRP | 0.0394

Row | Sequence | shrunken log2 fold change
126 | RRIRQRPPRLPRPRPRPSTFPRP | -0.176
127 | RRIRQRPPRLPRPRPRPSTLPRP | -0.319
128 | RRIRQRPPRLPRPRPRPSVHPRP | -0.276
129 | RRIRQRPPRLPRPRPRPSVYPRP | -0.643
130 | RRIRQRPPRLPRPRPRPSWFPRP | -0.323
131 | RRIRQRPPRLPRPRPRPSYCPRP | 0.103
132 | RRIRQRPPRLPRPRPRPTDGPRP | 0.178
133 | RRIRQRPPRLPRPRPRPTDMPRP | -0.0372
134 | RRIRQRPPRLPRPRPRPTDQPRP | 0.411
135 | RRIRQRPPRLPRPRPRPTEHPRP | -0.00172
136 | RRIRQRPPRLPRPRPRPTGAPRP | 0.412
137 | RRIRQRPPRLPRPRPRPTKAPRP | 0.0785
138 | RRIRQRPPRLPRPRPRPTKVPRP | -0.0676
139 | RRIRQRPPRLPRPRPRPTKYPRP | -0.257
140 | RRIRQRPPRLPRPRPRPTNCPRP | -0.33
141 | RRIRQRPPRLPRPRPRPTPVPRP | 0.286
142 | RRIRQRPPRLPRPRPRPTQFPRP | 0.14
143 | RRIRQRPPRLPRPRPRPTQHPRP | 0.195
144 | RRIRQRPPRLPRPRPRPTQRPRP | 0.548
145 | RRIRQRPPRLPRPRPRPTRFPRP | 0.04
146 | RRIRQRPPRLPRPRPRPTRNPRP | 0.185
147 | RRIRQRPPRLPRPRPRPTRRPRP | 0.556
148 | RRIRQRPPRLPRPRPRPTSDPRP | -0.358
149 | RRIRQRPPRLPRPRPRPTVHPRP | -0.367
150 | RRIRQRPPRLPRPRPRPTVTPRP | -0.47

Source: the supplement of paper PMC9112550, “Optimization of the antimicrobial peptide Bac7 by deep mutational scanning” (BMC Biology, 2022)
